Measured values reported in the supplement of paper PMC9112550, “Optimization of the antimicrobial peptide Bac7 by deep mutational scanning” (BMC Biology, 2022).

Test system: Escherichia coli TOP10
Experiment: shrunken log2 fold change of peptide-encoding DNA abundance (4.5 h post-induction vs induction); higher = less antimicrobial activity (less host growth inhibition)
Conditions: time post-induction: 4.5 h; library: site-saturation at positions 5, 18, 19, 20
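Also: peptides expressed intracellularly from a pBAD plasmid library in pooled LB shake-flask culture, induced with 0.3% L-arabinose, DNA abundance read by NGS, three biological replicates, DESeq2 with apeglm shrinkage.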

Sequence | shrunken log2 fold change
RRIRLRPPRLPRPRPRPYHKPRP | -0.304
RRIRDRPPRLPRPRPRPVPFPRP | 2.99
RRIRDRPPRLPRPRPRPRYKPRP | -0.202
RRIRDRPPRLPRPRPRPSASPRP | 0.259
RRIRYRPPRLPRPRPRPWVDPRP | -0.445
RRIRERPPRLPRPRPRPRPAPRP | 0.434
RRIRQRPPRLPRPRPRPGKIPRP | -0.0789
RRIRVRPPRLPRPRPRPMQGPRP | -0.0882
RRIRDRPPRLPRPRPRPQQPPRP | 0.902
RRIRFRPPRLPRPRPRPTWEPRP | -0.0897
RRIRARPPRLPRPRPRPPDQPRP | 1.16
RRIRCRPPRLPRPRPRPIWHPRP | -0.239
RRIRVRPPRLPRPRPRPAMKPRP | -0.187
RRIRMRPPRLPRPRPRPRLEPRP | 0.113
RRIRKRPPRLPRPRPRPGLRPRP | 0.708
RRIRYRPPRLPRPRPRPLWFPRP | -0.494
RRIRTRPPRLPRPRPRPSESPRP | 0.122
RRIRIRPPRLPRPRPRPPFNPRP | -0.473
RRIRSRPPRLPRPRPRPCALPRP | -0.242
RRIRQRPPRLPRPRPRPSVCPRP | -0.14
RRIRVRPPRLPRPRPRPSSLPRP | -0.334
RRIRIRPPRLPRPRPRPFRKPRP | -0.169
RRIRARPPRLPRPRPRPFNIPRP | -0.307
RRIRDRPPRLPRPRPRPCYQPRP | -0.0177
RRIRERPPRLPRPRPRPAMHPRP | 0.0193

Sequence | shrunken log2 fold change
RRIRNRPPRLPRPRPRPCKNPRP | -0.0376
RRIRQRPPRLPRPRPRPWTPPRP | -0.061
RRIRVRPPRLPRPRPRPRLSPRP | 0.0321
RRIRNRPPRLPRPRPRPDVWPRP | -0.0172
RRIRSRPPRLPRPRPRPVLDPRP | -0.058
RRIRTRPPRLPRPRPRPEYDPRP | -0.0227
RRIRGRPPRLPRPRPRPNVSPRP | -0.0528
RRIRCRPPRLPRPRPRPKQHPRP | 0.189
RRIRDRPPRLPRPRPRPGVMPRP | 0.521
RRIRGRPPRLPRPRPRPLMCPRP | 0.55
RRIRVRPPRLPRPRPRPKCQPRP | 0.106
RRIRIRPPRLPRPRPRPDAEPRP | 0.874
RRIRFRPPRLPRPRPRPLWAPRP | -0.151
RRIRKRPPRLPRPRPRPKETPRP | 0.35
RRIRQRPPRLPRPRPRPIRPPRP | 0.0227
RRIRYRPPRLPRPRPRPAAPPRP | 0.726
RRIRHRPPRLPRPRPRPWRTPRP | -0.229
RRIRDRPPRLPRPRPRPEPGPRP | 0.707
RRIRLRPPRLPRPRPRPGHLPRP | 0.00551
RRIRGRPPRLPRPRPRPSFGPRP | 0.0834
RRIRWRPPRLPRPRPRPPFGPRP | 0.274
RRIRWRPPRLPRPRPRPCHIPRP | -0.414
RRIRHRPPRLPRPRPRPKWRPRP | 0.328
RRIRCRPPRLPRPRPRPHYMPRP | -0.308
RRIRERPPRLPRPRPRPIKIPRP | -0.681

Sequence | shrunken log2 fold change
RRIRSRPPRLPRPRPRPKSMPRP | -0.269
RRIRVRPPRLPRPRPRPILRPRP | 0.0599
RRIRHRPPRLPRPRPRPRSQPRP | 0.136
RRIRQRPPRLPRPRPRPWKVPRP | -0.00992
RRIRCRPPRLPRPRPRPMREPRP | 0.907
RRIRCRPPRLPRPRPRPAERPRP | -0.109
RRIRYRPPRLPRPRPRPAELPRP | -0.187
RRIRSRPPRLPRPRPRPKRCPRP | -0.0384
RRIRDRPPRLPRPRPRPINKPRP | -0.287
RRIRFRPPRLPRPRPRPPMNPRP | -0.0762
RRIRERPPRLPRPRPRPMDHPRP | -0.0102
RRIRSRPPRLPRPRPRPDTTPRP | -0.191
RRIRQRPPRLPRPRPRPEIEPRP | -0.00695
RRIRFRPPRLPRPRPRPNKRPRP | -0.274
RRIRDRPPRLPRPRPRPIKRPRP | 0.000716
RRIRNRPPRLPRPRPRPQQYPRP | 0.017
RRIRVRPPRLPRPRPRPTAGPRP | -0.0283
RRIRYRPPRLPRPRPRPYHMPRP | -0.00245
RRIRSRPPRLPRPRPRPSQHPRP | -0.24
RRIRIRPPRLPRPRPRPLFYPRP | -0.633
RRIRHRPPRLPRPRPRPMDWPRP | -0.177
RRIRTRPPRLPRPRPRPDPCPRP | 0.0297
RRIRWRPPRLPRPRPRPAYRPRP | -0.00641
RRIRFRPPRLPRPRPRPYLMPRP | -0.687
RRIRARPPRLPRPRPRPMNWPRP | 0.351

Sequence | shrunken log2 fold change
RRIRIRPPRLPRPRPRPLYWPRP | -0.456
RRIRCRPPRLPRPRPRPVWCPRP | -0.269
RRIRMRPPRLPRPRPRPKFMPRP | 0.0431
RRIRARPPRLPRPRPRPTKVPRP | 0.339
RRIRCRPPRLPRPRPRPYDEPRP | -0.144
RRIRTRPPRLPRPRPRPWGCPRP | -0.151
RRIRIRPPRLPRPRPRPFCHPRP | -0.302
RRIRGRPPRLPRPRPRPHMMPRP | -0.0708
RRIRIRPPRLPRPRPRPGWSPRP | 0.312
RRIRERPPRLPRPRPRPAPGPRP | 0.325
RRIRRRPPRLPRPRPRPEDKPRP | 0.103
RRIRMRPPRLPRPRPRPDSLPRP | -0.0169
RRIRWRPPRLPRPRPRPTPNPRP | 0.519
RRIRVRPPRLPRPRPRPGLKPRP | 0.049
RRIRFRPPRLPRPRPRPTRRPRP | 0.928
RRIRGRPPRLPRPRPRPKWEPRP | 1.13
RRIRGRPPRLPRPRPRPWAMPRP | 0.483
RRIRQRPPRLPRPRPRPVREPRP | -0.00762
RRIRLRPPRLPRPRPRPLDSPRP | 0.0522
RRIRGRPPRLPRPRPRPNEYPRP | 0.249
RRIRTRPPRLPRPRPRPDFKPRP | -0.172
RRIRDRPPRLPRPRPRPKTQPRP | -0.0316
RRIRYRPPRLPRPRPRPFSQPRP | 0.0654
RRIRQRPPRLPRPRPRPPVLPRP | 0.155
RRIRARPPRLPRPRPRPGVNPRP | -0.238

Sequence | shrunken log2 fold change
RRIRIRPPRLPRPRPRPSGVPRP | -0.666
RRIRVRPPRLPRPRPRPYDDPRP | -0.000921
RRIRYRPPRLPRPRPRPPHNPRP | -0.275
RRIRLRPPRLPRPRPRPCNPPRP | -0.000687
RRIRKRPPRLPRPRPRPPWCPRP | 0.401
RRIRDRPPRLPRPRPRPAMRPRP | 0.415
RRIRCRPPRLPRPRPRPHFVPRP | -0.23
RRIRRRPPRLPRPRPRPTCGPRP | 0.506
RRIRRRPPRLPRPRPRPAYAPRP | -0.0409
RRIRHRPPRLPRPRPRPYLAPRP | -0.00514
RRIRMRPPRLPRPRPRPMTKPRP | 0.0956
RRIRERPPRLPRPRPRPAQIPRP | -0.0282
RRIRWRPPRLPRPRPRPQIDPRP | -0.688
RRIRKRPPRLPRPRPRPLAMPRP | 0.486
RRIRVRPPRLPRPRPRPQAMPRP | -0.00096
RRIRMRPPRLPRPRPRPSYRPRP | -0.0836
RRIRGRPPRLPRPRPRPKYTPRP | 0.101
RRIRIRPPRLPRPRPRPGNTPRP | -0.546
RRIRIRPPRLPRPRPRPVFTPRP | -0.305
RRIRGRPPRLPRPRPRPRMQPRP | 0.494
RRIRPRPPRLPRPRPRPRKCPRP | 0.0115
RRIRGRPPRLPRPRPRPYRGPRP | -0.186
RRIRDRPPRLPRPRPRPVHFPRP | 0.033
RRIRRRPPRLPRPRPRPKRWPRP | 0.409
RRIRKRPPRLPRPRPRPNCYPRP | -0.08

Sequence | shrunken log2 fold change
RRIRLRPPRLPRPRPRPKLFPRP | 0.306
RRIRSRPPRLPRPRPRPLQAPRP | 0.302
RRIRLRPPRLPRPRPRPTLFPRP | 0.0945
RRIRTRPPRLPRPRPRPMWGPRP | -0.00569
RRIRIRPPRLPRPRPRPFCNPRP | -0.553
RRIRDRPPRLPRPRPRPTRRPRP | 0.206
RRIRWRPPRLPRPRPRPLKMPRP | 0.234
RRIRSRPPRLPRPRPRPEHKPRP | -0.156
RRIRIRPPRLPRPRPRPEQNPRP | -0.204
RRIRMRPPRLPRPRPRPYPCPRP | 0.0288
RRIRGRPPRLPRPRPRPIRNPRP | -0.0262
RRIRKRPPRLPRPRPRPIVPPRP | 0.269
RRIRKRPPRLPRPRPRPDKFPRP | 0.126
RRIRGRPPRLPRPRPRPRIEPRP | 0.249
RRIRMRPPRLPRPRPRPISQPRP | -0.29
RRIRHRPPRLPRPRPRPMWSPRP | -0.209
RRIRERPPRLPRPRPRPFPKPRP | 0.459
RRIRARPPRLPRPRPRPSDNPRP | -0.183
RRIRQRPPRLPRPRPRPNHHPRP | -0.864
RRIRTRPPRLPRPRPRPDERPRP | -0.146
RRIRYRPPRLPRPRPRPLSHPRP | -0.678
RRIRNRPPRLPRPRPRPGCWPRP | 0.55
RRIRYRPPRLPRPRPRPKGIPRP | -0.228
RRIRQRPPRLPRPRPRPYSQPRP | -0.195
RRIRHRPPRLPRPRPRPKGNPRP | -0.124
